Data taken from US20250262297A1, “ALLERGY ANTIGEN AND EPITOPE THEREOF” (HOYU CO., LTD., priority 2017, published 2025).
Each block holds one molecule with its values, some of them ahead of it.

System: IgE antibodies from soybean-allergic patients
Assay: Immunoblotting of two-dimensional electrophoresis pattern of soybean proteins with patient serum
Type: binding, human
Conditions: spot in 2D electrophoresis gel of soybean proteins; patient serum compared with healthy subject serum
Excerpt: Transfer to membrane was done using the following transfer system and transfer buffer. • Transfer system: XCell SureLock Mini-Cell and XCell II Blot Module (produced by Life Technologies) • Transfer buffer: NuPAGE Transfer Buffer (X20) (produced by Life Technologies), used in a form diluted 20-fold with milliQ water.
To be specific, proteins in the two-dimensional electrophoresis gels were transferred to a membrane (PVDF membrane) according to the following procedure. • (1) The PVDF membrane was immersed in 100% methanol followed by milliQ water, and then moved into the transfer buffer to hydrophilize the PVDF membrane. • (2) After sponge, filter paper, the gels treated by second-dimensional SDS-PAGE, the hydrophilized PVDF membrane, filter paper, and sponge were put in place in this order, the transfer system was energized at a constant voltage of 30 V for one hour.
Immunoblotting of the membrane was carried out using, as a primary antibody, a serum sample from a patient with a soybean allergy or a serum sample from a healthy subject.
Immunoblotting of the membrane was carried out according to the following procedure. • (1) The transferred membrane was shaken in a 5% skim milk/PBST solution (a PBS buffer containing 0.3% Tween 20 nonionic surfactant) at room temperature for one hour. • (2) The membrane was left to stand in a solution of 3% primary antibody serum in 5% skim milk/PBST at room temperature for one hour. • (3) The membrane was washed with a PBST solution (5 min.×3 times). • (4) The membrane was left to stand in a 1:2500 dilution of the secondary antibody, anti-human IgE-HRP (horseradish peroxidase), with a 3% skim milk/PBST solution at room temperature for one hour. • (5) The membrane was washed with a PBST solution (5 min.×3 times). • (6) The membrane was left to stand in Pierce Western Blotting Substrate Plus (produced by Thermo Fisher Scientific) for 5 minutes.
The membrane obtained through the foregoing series of treatments was subjected to fluorescent image scanning on Typhoon 9400 (produced by GE).
The immunoblots obtained with the serum from the soybean-allergic patient were compared with those obtained with the control serum from the healthy subject.

- specific binding to IgE antibodies from soybean-allergic patients: specific binding
B1: 14-3-3-like protein (protein)
chain: MAAAPSPREENVYMAKLAEQAERYEEMVEFMEKVSAAADNEELTVEERNLLSVAYKNVIGARRASWRIISSIEQKEESRGNEDHVSVIRDYRSKIESELSNICDGILKLLDSRLIPSASSGDSKVFYLKMKGDYHRYLAEFKTGAERKEAAESTLSAYKAAQDIANAELPPTHPIRLGLALNFSVFYYEILNSPDRACNLAKQAFDEAIAELDTLGEESYKDSTLIMQLLRDNLTLWTSDMQDDGADEIKEAAPKPDDQ

- specific binding to IgE antibodies from soybean-allergic patients: specific binding
B2: probable fructokinase-4 (protein)
chain: MALNNGVPATGTGLIVSFGEMLIDFVPTVSGVSLAEAPGFLKAPGGAPANVAIAVSRLGGKAAFVGKLGDDEFGHMLAGILKENGVRADGINFDQGARTALAFVTLRADGEREFMFYRNPSADMLLKPEELNLELIRSAKVFHYGSISLIVEPCRSAHLKAMEVAKESGCLLSYDPNLRLPLWPSAEEARKQILSIWEKADLIKVSDAELEFLTGSDKIDDESALSLWHPNLKLLLVTLGEHGSRYYTKSFKGSVDAFHVNTVDTTGAGDSFVGALLAKIVDDQSILEDEPRLREVLKFANACGAITTTQKGAIPALPKEEAALKLIKGGS

- specific binding to IgE antibodies from soybean-allergic patients: specific binding
B3: triosephosphate isomerase isoform X1 (protein)
chain: MGRKFFVGGNWKCNGTTEEVKKIVTTLNEAKVPGEDVVEVVVSPPFVFLPFVKSLLRPDFHVSAQNCWVRKGGAYTGEVSAEMLVNLGIPWVIIGHSERRQLLNESNEFVGDKVAYALQQGLKVIACIGETLEQREAGTTTAVVAEQTKAIAAKISNWDNVVLAYEPVWAIGTGKVATPAQAQEVHADLRKWVHDNVSAEVAASVRIIYGGSVNGGNCKELAAQPDVDGFLVGGASLKAEFVDIINAATVKKN
modifications: Glycine max
notes: spot also identified as triosephosphate isomerase, cytosolic

- specific binding to IgE antibodies from soybean-allergic patients: specific binding
B4: 51 kDa seed maturation protein precursor (protein)
chain: MASKVVSVLVIAMMLFAMNCNCTSVGHMPSTKEEGHDFQESKAKTTQTANKAMETGKEGQEAAESWTEWAKEKLSEGLGFKHDQESKESTTNKVSDYATDTAQKSKDYATDTAQKSKDYAGDAAQKSKDYAGDAAQKTKDYASDTAQTSKDYAGDAAQKSKGYVGDAAQKTKEYVGDAAQKTKDYATDAAQKTKDYATQKTKDYASDATDAAKKTKDYAAQKTKDYASEASDVAQNTKDYAAQKTKDYASGGAQKTKDYASGGAQKTKDYASDAAQKTKDYASDGAQKSKEYAGDVALNAKDYAQKSKDYAGDAAQNVKDYASDAVQKRKEYSGDASHKSKEASDYASETAKKTKDYVGDAAQRSKGAAEYASDAAQRTKEYAGDATKRSKEASNDHANDMAQKTKDYASDTAQRTKEKLQDIASEAGQYSAEKAREMKDAAAEKASDIAKAAKQKSQEVKEKLGGQHRDAEL
modifications: Glycine max
notes: spot also identified as Lea protein precursor

- specific binding to IgE antibodies from soybean-allergic patients: specific binding
B5: alpha-1,4 glucan phosphorylase L isozyme, chloroplastic/amyloplastic (protein)
chain: MASSSTTMRFSAASTGAAAALPRRSSVAGFIGVAARSSAKSRLRFIGRNANLSLRMRRMSSFSVVKCVSGSEAKVQDTVAKQQEATTSLSSFTPDASSIASSIKYHAEFTPLFSPENFDLPQAFLATAQSVRDSLIINWNATYDYYEKLNVKQAYYLSMEFLQGRALLNAIGNLELTGPYAEALSKLGHKLENVAYQEPDAALGNGGLGRLASCFLDSLATLNYPAWGYGLRYKYGLFKQRITKDGQEEVAEDWLEMGNPWEIIRNDVSYPVKFYGKVVSGSDGKKHWIGGEDIKAVAHDVPIPGYKTKTTINLRLWSTKAASEEFDLSAFNAGRHTEASEALANAEKICYILYPGDEPIEGKILRLKQQYTLCSASLQDIIARFERRSGANVNWEEFPEKVAVQMNDTHPTLCIPELMRILIDVKGLNWKDAWNITQRTVAYTNHTVLPEALEKWSLDLMQKLLPRHIEIIEMIDEELVRTIIAEYGTENSDLLEKKLKEMRILENVELTAEFADILVKSKEAIDIPSEELQSSEQAEAEDEKDDDEVEAVAKKNGTDESSIEDEKEELPEPVPEPPKLVRMANLCVVGGHAVNGVAEIHSEIVKDDVFNAFYKLWPEKFQNKTNGVTPRRWIRFCNPDLSKIITEWIGTEDWVLNTGKLAELRKFVDNEDLQVQWREAKRSNKVKVAAFIREKTGYSVSPDAMFDIQVKRIHEYKRQLMNIFGIVYRYKKMKEMSAAEREANFVPRVCIFGGKAFATYVQAKRIVKFITDVGATVNHDPEIGDLLKVVFVPDYNVSVAEMLIPASELSQHISTAGMEASGTSNMKFAMNGCILIGTLDGANVEIREEVGADNFFLFGAKAHEIAGLRKERAEGKFVPDPRFEEVKEFVRSGIFGSYNYDELMGSLEGNEGFGRADYFLVGKDFPSYIECQEKVDEAYRDQTKWTRMSILNTAGSYKFSSDRTIHEYAREIWNIEPVQLP

- specific binding to IgE antibodies from soybean-allergic patients: specific binding
B6: aconitate hydratase 1 (protein)
chain: MATENPFNSILTTLEKPGGAGEFGKYFSLPALNDRRIDRLPYSVRILLESAIRNCDEFQVKSNDVEKIIDWENTSPKLVEIPFKPARVLLQDFTGVPAVVDLACMRDAMNKLGGDSNKINPLVPVDLVIDHSVQVDVARSENAVQANMELEFQRNKERFGFLKWGSNAFNNMLVVPPGSGIVHQVNLEYLGRVVFNTNGVLYPDSVVGTDSHTTMIDGLGVAGWGVGGIEAEAAMLGQPMSMVLPGVVGFKLLGKLRDGVTATDLVLTVTQMLRKHGVVGKFVEFYGEGMSELSLADRATIANMSPEYGATMGFFPVDHVTLQYLRLTGRSDETVSMIESYLRANKMFVDYSEPQVERVYSSYLELNLEDVEPCVSGPKRPHDRVPLREMKVDWHACLNNKVGFKGFAVPKESQNKVAEFTFQGTPAHLRHGDVVIAAITSCTNTSNPSVMLGAALVAKKACELGLQVKPWIKTSLAPGSGVVTKYLQRSGLQKYLNELGFNIVGYGCTTCIGNSGDINEAVASAITENDIVAAAVLSGNRNFEGRVHPLTRANYLASPPLVVAYALAGTVDIDFDTEPIGIGKDGTKIFFRDIWPSSEEIANVVQSSVLPAMFRDTYNAITQGNPMWNNLSVPTGTLYAWDPTSTYIHEPPYFRDMSMSPPGSHGVKDAYCLLNFGDSITTDHISPAGSIHKDSPAARYLIERGVDRRDFNSYGSRRGNDEVMARGTFANIRIVNKFLNGEVGPKTIHIPSGEKLSVFDAAEKYKSEGHDMIILAGAEYGSGSSRDWAAKGPMLLGVKAVIAKSFERIHRSNLVGMGIIPLCFKPGDDADSLGLTGHERYTIDLPSNVNEIRPGQDVTVVTDAGKSFVSTLRFDTEVELAYFNHGGILQYVIRNMVNAKH
modifications: Glycine max

- specific binding to IgE antibodies from soybean-allergic patients: specific binding
B7: superoxide dismutase [Fe], chloroplastic isoform X1 (protein)
chain: MASLGGLQNVSGINFLIKEKGCCMLQGPKVNAKFELKPPPYPLNGLEPVMSQQTLEFHWGKHHKTYVENLKKQVVGTELDGKSLEEIIVTSYNKGDILPAFNNAAQVWNHDFFWECMKPGGGGKPSGELLELIERDFGSFVKFLDEFKAAAATQFGSGWAWLAYRARKFDGENVANPPSPDEDNKLVVLKSPNAVNPLVWGGYYPLLTIDVWEHAYYLDFQNRRPDYISVFMDKLVSWDAVSSRLEQAKALITSA
modifications: Glycine max
notes: spot also identified as iron-superoxide dismutase
